Test results taken from publication PMC5582856, “Inverted stereocontrol of iridoid synthase in snapdragon” (The Journal of Biological Chemistry, 2017).

Substrate: C/C(C=O)=C\CC/C(C)=C/C=O
Assay: purified protein
Format: biochemical, Antirrhinum majus
Settings: 50 μM NADPH fixed, 200 mM MOPS pH 7.0, 100 mM NaCl, 1% THF, 25 °C, 20 nM enzyme

B1: AmISY (Am18679), Antirrhinum majus iridoid synthase (Antirrhinum majus) (protein)
chain: MSWWYRRSIGETEQKRIEINGVSPTYQSVALIVGVTGIAGSGLAETLSFSDTPGGPWKVYGVARRPCPKWLAKLNVNYVQCDIANTDETYSKVAPLTDITHIFYVSWTGSEDVALNTLMFKNILDSVIPNAPNLKHVSLQTGIKYYWGNMAEMDSTNQPHECPFYENMPRLKQDNFYYNLEDLVYDSAVRKNGLSWSIHRPALIFGFSPCSMMNTVSTLCVYAAICKHENKPLVYTGTETSWTCLWDAVDSDLLAEHFLWAATVPNAKNQAFNINNGDVFKWKHMWKVLAKEFDIEAIGYEGKEPVLLEDLMKDKDSVWDEIVKKHDLVPTKLRDIAAFWLADVVFRNKETLCSMNKNKEFGFMGFRDTTKSFVSSINKMRDFKFIP
notes: GenBank record is one of MF281392-MF281395 (not assigned in the text)
Km: 1.1 ± 0.1 µM
kcat: 0.72 ± 0.02 s⁻¹
